This note sets out measurements from patent US20160289270A1, “Methods, Peptides and Antibodies for Preventing, Treating and Diagnosing an Inflammatory Condition” (WESTFAELISCHE WILHELMS-UNIVERSITAET MUENSTER, priority 2013, published 2016).

B1: S100A9E64A: purified recombinant S100A9 mutant, alanine instead of E64 (protein)
chain: MTCKMSQLERNIETIINTFHQYSVKLGHPDTLNQGEFKELVRKDLQNFLKKENKNEKVIEHIMADLDTNADKQLSFEEFIMLMARLTWASHEKMHEGDEGPGHHHKPGLGEGTP
B2: S100A9D65A: purified recombinant S100A9 mutant, alanine instead of D65 (protein)
chain: MTCKMSQLERNIETIINTFHQYSVKLGHPDTLNQGEFKELVRKDLQNFLKKENKNEKVIEHIMEALDTNADKQLSFEEFIMLMARLTWASHEKMHEGDEGPGHHHKPGLGEGTP
B3: S100A9K72A: purified recombinant S100A9 mutant, alanine instead of K72 (protein)
chain: MTCKMSQLERNIETIINTFHQYSVKLGHPDTLNQGEFKELVRKDLQNFLKKENKNEKVIEHIMEDLDTNADAQLSFEEFIMLMARLTWASHEKMHEGDEGPGHHHKPGLGEGTP
B4: S100A9Q73A: purified recombinant S100A9 mutant, alanine instead of Q73 (protein)
chain: MTCKMSQLERNIETIINTFHQYSVKLGHPDTLNQGEFKELVRKDLQNFLKKENKNEKVIEHIMEDLDTNADKALSFEEFIMLMARLTWASHEKMHEGDEGPGHHHKPGLGEGTP
B5: S100A9R85A: purified recombinant S100A9 mutant, alanine instead of R85 (protein)
chain: MTCKMSQLERNIETIINTFHQYSVKLGHPDTLNQGEFKELVRKDLQNFLKKENKNEKVIEHIMEDLDTNADKQLSFEEFIMLMAALTWASHEKMHEGDEGPGHHHKPGLGEGTP
B6: S100A9E77A: purified recombinant S100A9 mutant, alanine instead of E77 (protein)
chain: MTCKMSQLERNIETIINTFHQYSVKLGHPDTLNQGEFKELVRKDLQNFLKKENKNEKVIEHIMEDLDTNADKQLSFAEFIMLMARLTWASHEKMHEGDEGPGHHHKPGLGEGTP

Sequence of TLR4/MD2 (O00206 24-631 limits assumed): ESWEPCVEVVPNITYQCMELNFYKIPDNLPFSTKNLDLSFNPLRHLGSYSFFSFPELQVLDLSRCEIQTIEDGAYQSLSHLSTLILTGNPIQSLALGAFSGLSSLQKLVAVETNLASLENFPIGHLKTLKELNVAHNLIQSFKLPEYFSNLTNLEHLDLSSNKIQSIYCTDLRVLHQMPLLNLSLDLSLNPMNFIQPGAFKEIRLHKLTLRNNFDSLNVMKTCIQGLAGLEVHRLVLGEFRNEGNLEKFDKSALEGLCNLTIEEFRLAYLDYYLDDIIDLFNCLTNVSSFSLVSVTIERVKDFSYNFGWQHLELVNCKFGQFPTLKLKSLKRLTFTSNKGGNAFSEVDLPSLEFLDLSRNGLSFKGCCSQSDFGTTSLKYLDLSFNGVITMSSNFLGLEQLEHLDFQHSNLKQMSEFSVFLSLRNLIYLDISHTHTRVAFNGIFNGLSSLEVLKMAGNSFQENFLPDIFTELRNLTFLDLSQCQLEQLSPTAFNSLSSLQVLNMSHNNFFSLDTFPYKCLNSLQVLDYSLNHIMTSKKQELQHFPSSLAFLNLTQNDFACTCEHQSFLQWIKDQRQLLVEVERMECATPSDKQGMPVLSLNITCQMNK
Sequence of TLR4/MD2 (Q9Y6Y9 17-160 limits assumed): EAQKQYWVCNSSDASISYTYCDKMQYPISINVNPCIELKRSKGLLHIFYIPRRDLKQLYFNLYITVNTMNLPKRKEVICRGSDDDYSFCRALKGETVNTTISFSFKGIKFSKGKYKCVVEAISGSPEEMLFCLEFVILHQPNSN

For one assay, the target named is T1, his-tagged rhTLR4/MD2 (Homo sapiens, UniProt O00206+Q9Y6Y9).
T1 construct: purchased R&D SYSTEMS
T1 sequence (O00206 24-631 limits assumed): as the sequence (O00206 24-631 limits assumed) above
T1 sequence (Q9Y6Y9 17-160 limits assumed): as the sequence (Q9Y6Y9 17-160 limits assumed) above
The assay can be described thus: Immunoprecipitation on TLR4/MD2-coupled beads, eluates analysed by MALDI-TOF mass spectrometry. Type of assay: binding. The conditions noted are these: beads with TLR4/MD2, 3 h at 4° C., 1 mM Calcium, elution with 10 mM TRIS/2 mM EDTA. The protocol: Anti-His antibody (5 μL, 0.5 mg/mL, Invivogen) and his-tagged rhTLR4/MD2 (5 μL, 1 mg/mL, carrier free, R&D SYSTEMS) were mixed and coupled to Protein A/G Agarose ([…], Thermo Scientific). Trypsin digested peptides of S100A9 were added for 3 h at 4° C. in the presence of 1 mM Calcium. After washing of the beads in HBS/1 mM Ca-buffer for three times bound peptidic fragments were eluted by addition of 10 mM TRIS/2 mM EDTA-buffer and analysed by ESI and MALDI-TOF-mass spectrometry. Identical experiments were performed to analyze the binding of the chemical synthesized peptides of S100A9 (aa63-79), S100A8 (aa55-71) and the corresponding control peptides aa63-79 A5 and aa55-71 A3.
In the case of “55-71: synthetic peptide, positions 55-71 of human S100A8, complete C-terminal EF hand, FKELDINTDGAVNFQEF”, the “binding to TLR4/MD2 (peptide detected in eluate by MALDI-TOF mass spectrometry)” value (shortened to “binding to TLR4/MD2”) is “able to bind to TLR4/MD2”.

With “63-79 A5: control peptide, S100A9 positions 63-79 with E64A, D65A, Q73A, E77A and K72A exchanged to alanine (MAALDTNADAALSFAEF) [reference compound]”, the “binding to TLR4/MD2” value is recorded as “no binding could be detected”.

Consider “63-79: synthetic peptide, amino acid positions 63-79 of S100A9, complete C-terminal EF hand, MEDLDTNADKQLSFEEF”, for which the “binding to TLR4/MD2” value is listed as “able to bind to TLR4/MD2”.

For the molecule “No. 15: tryptic fragment of human S100A9, amino acid sequence from positions 73 to 85, portion of the C-terminal EF Hand (QLSFEEFIMLMAR; UniProt P06702 73-85, looked up, fragment)”, the “binding to TLR4/MD2” value is listed as “specific interaction with TLR4/MD2”.

A further assay addresses TLR4/MD2 (Homo sapiens, UniProt O00206+Q9Y6Y9). The assay can be described thus: Modified S100A9-ELISA: binding of S100A9-wt and mutant proteins to plate-coupled TLR4/MD2. The conditions noted are these: 2 μg/ml protein, two hours at room temperature, absorbance at 450 nm, FIG. 4B/4C. The protocol: Binding of S100A9 proteins to TLR4/MD2 was analysed by a modified S100A9-ELISA. Briefly, TLR4/MD2 was coupled to the wells of a 96-well plate and served as capturing molecule. After blocking of the unspecific binding sites by PBS/5% skim milk powder plates were washed three times. S100A9-wt or mutant S100A9 proteins were added at a concentration of 2 μg/ml each in the presence and absence of 100 μM Calcium and incubated for two hours at room temperature. Unbound S100A9 was removed by washing the plates for three times followed by the addition of a primary anti-S100A9-antibody (1 μg/ml, polyclonal, rabbit). After a washing step the secondary anti-rabbit-IgG-antibody coupled to HRP (1 μg/ml from Cell Signalling) was added. TMB was used as substrate for HRP to quantify binding by absorbance readings at 450 nm in an ELISA reader (Anthos Mikrosysteme).
For orientation: An ELISA detects its analyte on a solid surface through an enzyme-linked reagent.
In the case of B1, the “binding to the receptor TLR4/MD2 compared to non-mutated protein (S100A9 wt)” value is “weaker binding”.

As to B2, the “binding to the receptor TLR4/MD2 compared to non-mutated protein (S100A9 wt)” value is “weaker binding”.

B3: the “binding to the receptor TLR4/MD2 compared to non-mutated protein (S100A9 wt)” value was “not significantly different”.

Turning to B4, the “binding to the receptor TLR4/MD2 compared to non-mutated protein (S100A9 wt)” value is “weaker binding”.

On to B5, for which the “binding to the receptor TLR4/MD2 compared to non-mutated protein (S100A9 wt)” value is reported as “not significantly different”.

For B6, the “binding to the receptor TLR4/MD2 compared to non-mutated protein (S100A9 wt)” value is reported as “weaker binding”.
